B1: BAG3^P209L (recombinant) (natural protein)
chain: not shown
notes: BAG3, human, disease mutation P209L in the second IPV motif; Forms soluble higher order oligomers by SEC-MALS; source: E. coli BL21(DE3), purified (Ni-NTA, TEV cleavage, MonoQ)
B2: BAG3^P209I (recombinant) (natural protein)
chain: not shown
notes: BAG3, human, P209I; source: E. coli BL21(DE3), purified (Ni-NTA, TEV cleavage, MonoQ)
B3: BAG3^P209W (recombinant) (natural protein)
chain: not shown
notes: BAG3, human, P209W; source: E. coli BL21(DE3), purified (Ni-NTA, TEV cleavage, MonoQ)

Target: the molecule itself
Assay: SEC-MALS; 30 µM BAG3 solutions separated on Shodex 804, in-line DAWN HELEOS and Optilab rEX detectors

Binding result, binds:
B1
B2
B3
